According to the nanobody polyreactivity screen of Harvey et al. (2022):

Experiment: yeast display, Sf9 membrane polyspecificity reagent, FACS + sequencing; frameworks hold sequencing errors
Procedure, shortened: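 Sorting gates, low and high (top ~1%), were placed on anti-HA fluorescence to track expression and on streptavidin fluorescence to track reagent binding. A clone's polyreactivity label is taken from the gate it came out of. The reagent was 10% biotinylated, detergent-solubilized Sf9 membrane, applied for 1 hour at 4 °C to galactose-induced yeast display cells.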

Sequence | polyreactivity (PSR sort gate)
LVQLVESGGGIVQAGGSLRLSCAASGLISQRNVMGWYRQAPGKERELVARISTSSSGTYYADSVKGRFTISRDNAKNTVYLQMNSLKPEDTAVYYCAKRWSPYYRLYSWGQGTQVTVSS | high polyreactivity
QVQLVESGGGLVQAGGSLRLSCAASRSIFYINAMGWYRQEPGKEMELVAAITSDGSTYYADSVKGRFTISRDNAKNTVYLQMNSLKPEDTAVYYCAADLTSDQYLYYWYWFYSWGQGTQVTVSS | low polyreactivity
QVQLVESGVGLVQAGGSLRLSCAASGRTFAYYAMGWNRQAPWKERELVARITSDGSTYYADSVKGRFTISRDNAKNTVYLQMNSLIPEDTAVYYCNARWRYKWKYDHWGQGTQVTVSS | low polyreactivity
QVQLVESGGGLVLAGGSLRLSCAASGRTFGYYTMGWYRQAPGKERELVAGISSAGSTNYADSVKGRFTLSRDYAKNTVYLQMNSLKPEDTAVYYCAARYQFYRYDSTYYYCGQGTQVTVSS | high polyreactivity
QVQLVESGGGLVQAGGSLRLSCAASGSTFLGNVMGWYRQAPGKERELVAAITSTGGNTYYADSVKGRFTISRDNAKNSVYLQMNSLKPEDTAVYYCAKKYVWTHNYWGQGTQVTVSS | low polyreactivity
QVQLVESGGGLVQAGGSLRLSCAASGITFRYSAMGWYRQAPGKERELVAVISTSGGSTYYADSVKGRFTISRDNAKNTVYLQMNSLKPEDTAVYYCAARYTYWGLLRYDYWGQGTQVTVSS | high polyreactivity
QVQLVESGGGLVQSGGSLRLSCAASGYIFGYYAMGWYRQAPGKERELVADITWRGDSTYADSVKGRFTISRDNAKNTVYLQMNSLKPEDTAVYYCAADIATEYWYTGYDHWGQGTQVNVSS | low polyreactivity
QDQLVESGGGLVQAGGSLRLSCAASGSIFNGNAMGWYRPAPGKERELVAAITRRGGRTFYADSVKGRFTISRDNAKNSVYLQMNSLKPEDTAVYYCNAYSKAVQGGYDYWGQGTQVTVSS | high polyreactivity
QVQLVESGGGLVQAGGSLRLICAASGSTFTPYAMGWYRQEPGKERELVAAIRGSGGRTYYADSVKGRFTISRDNAKNTVYLQMNSLKPEDTAVYYCAASWLYTGWGRYDYWGQGTQVTVSS | high polyreactivity
QVQHVESAAGLVQAGGSLRLSCDPSGIIFGRYAMGLYRHAPGKEREFVAAITWSGGSTYYADSVKGRFTISRDNAKNTVYLQMNSLKPEDTAVYYCAADTWYRYDYWGQGTQVTVSS | low polyreactivity
QVQLVESGGGLVQAGGSLRLSCAASGSTFYRYAMGWYRPAPGKERELVAAISSSGGSTYYADSVKGRFTISRDNAKNTVYLQMNSLKPEDTAVYYGNADVHSQYDYWGQGTQVTVSS | low polyreactivity
QVQSVESCGGLVQAGRSLRLSCAPSGSIFADYAMGWYSQAPGKERELVAVISRRGGTTYYADSVKGRFTISRDNAKNSVYLQMNSLKPEDTAVYYCAARRSFNEYDYWGKGTQVTVSS | high polyreactivity
QVQLVESGGGLVQAGGSLRLTCAASGSIFSYYAMGWYRQAPGKERELVAAITSGGGTYYADSVKGRFTISRDNAKNTVFLQMNSLKPEDTAVYYCAKDGYPDQDVQVFNDSDYWGQGTQVTVSS | low polyreactivity
QVHVVESGGGLVQAGGSLRLSCAASGFTFAKYAMGWYRQAPGKERELVAVITSSGGRTYYADSVKGRFTISRDNAKNTVYLQMNSLKPEDTAVYYCNAGKYVYATSQYDYWGQGTQVTVSS | high polyreactivity
QVQLVESGGGLVQAGGSLRLSCAAAGRTFGDYDMGWYRQAPGKERELVAAITSDGTTYYADSVKGRFTISRDNAKNTVYLQMNSLKPEDTAVYYCAADYWYVSWYDYWGQGTQVTVSS | low polyreactivity
QVQLVESGGGLVQAGGSLRLSCAASGRIFARNAMGWYRQAPGKERELVATIRVGGGSTYYADSVKGRFTISRDNAKNTVYLQMNSLKPEDTAVYYCAVRQLYSYPGDRRGYYWGQGTQVTVSS | low polyreactivity
QVQLVESGGGLVQAGGSLRLSCAASGSTFKQYTMGWYRQATGKERELVAAINRGGTSTNYADSVKGRFTISRDNAKNTVYLQMNSLKPEDTAVYYCNAGYSWGRYYYWGQGTQVTVSS | low polyreactivity
QVQLVESGGGLVQAGGSLRLSCAASGRTFYRYAMGWYRQAPGKERELVAAISYSGGSTYYADSVKGRFTISRDNAKNTVYLQMNSLKPEDTAVYYCNARPVKASYVGYNYWGQGTQVTVSS | high polyreactivity
QVQLVESGGGLVQAGGSLRLSCADSGSIFGSYATGWYRQAPGKERELVAAITYSGTSTYYADSVKGRFTISRDTAKNTVYLQMNRLKPEDTAVYYCAKRHWFQYRRPDLGRFDYWGQGTQVTVSS | high polyreactivity
QVQLVESGGGLVQAGGSLRLSCAASGITFVYYDMGWYRQAPGKERELVAAISSDGSTYYADSVKGRFTISRDNAKNTVYLQMNSLKPEDSAVYYCAADYFNYRGYTYLGDYWGQCTQVTVSS | low polyreactivity
QVQLVESGGGLVQAGGSLRLSCAATGITFEYNAMGWYRQAPGKERELVAAISLSSGSTYYADSVKGRFTISRDNAKNTVYLQMNSLKPEDTAVYYCNADTIIYEGGYWGQGTQVTVSS | low polyreactivity

Sequence | polyreactivity (PSR sort gate)
QVQLVESGGGLVQAGGSLRLSCAASGSIFPYYVMGWYRQAPGKERYADSVKGRFTISRDNAKNTVYLQMNSLKPVDTAVYYSAAKVPEPPSLDESDYWGQGSQVTVSS | low polyreactivity
QVQLVESGGGLVQAGGSLRLSCAASGIIFYYNAMGWYRQAPGKERELVAAIDDRGDSTYYADSVKGRFTISRDNAKNTVYLQMNSLKPEDTAVYYCAARDRYLYFDAMDYWGQGTLVTVSS | low polyreactivity
QVQLVESGGGLVQAGGSLRLSCAASGRIFGTYGMGWYRPAPGKERELVAAISGGGSTNYADSVKGRFTISRDNAKNTVYLQMNSLKPEDTAVYYCATRWYRFYPSDYWGQGTQVTVSS | low polyreactivity
QVQLVESGGGLVQAGGSLRLSCAASGSIFAWYAMGWYRQAPGKERELVAAISYRGGRTYYADSVKGRFTISRDNAKNTVYLQMNSLKPEDTAVYYCATDANRGYPSYDYWGQGTQVTVSS | high polyreactivity
QVQLVESCGCLVQAVGSLRLSCAASGRIFGWYAMGWDRQAPVKERELVAAISSARRTYYADSVKGRFTISRDNAKNSVYLQMNSLKPEDTAVSYCAAYYYNDRMYYWGQGNQVTVSS | high polyreactivity
QVQLVESGGGLVQAGGSLRLSCAASGNTFRSYAMGWYRQAPGKERELVAAISSTGNTYYADSVKGRFTISRDNAKNTVYLQMNSLKPEDTAVYYCAASKWRRADYYYWGQGTQVTVSS | high polyreactivity
QVQIVESGGGLVQAGGRLRLSFSASGIIFTGNAMGWYRQAPGKERELVAAITSGDTTNYADSVKGRFTISRDNAKNTVYLLMNSLKPEDTAVYYCAKELQVRQAGDYWGQGTQVTVSS | low polyreactivity
QVQLVESGGGLVQAGGSLRLSCAASGIIFFKYAMGWYRQAPGKERQLVAAITSGGSTYYADSVKGRFTISRDNEKNTVYLQMNSLKPVDTAVYYCAAAGGRFIRYGYWGQGTQVTVSS | high polyreactivity
QVQLVESGGGLVQAGGSLRLSCAASGFIFGLYAMGWYRQAPGKETELVATISWDGGSTYYADSVKGRFTISRDNAKNTVYLQMNSLKPEDTAVYYCAATYLYRSPYVPMDYWGQGTQVTVSS | low polyreactivity
QVQLVESGGGLVQAGGSLRLSCAASGRTFRRNAMGWYRQAPGKERELVASINRGGGTNYADSVKGRFTISRDNAKHTVYLQMNSLKPEDTAVYYCAAGPGTYWGYDYWGQGTQVTVSS | low polyreactivity
QVQLVESGGGLVQAGGSLRLSCAASGFTFYWYAMGWYRQAPGKERELVAAITRSGSSTYYADSVKGRFTISRDNAKNTVYLQMNSLKPEDTAVYYCAKAYRPPGYDSWGQGTQVTVSS | high polyreactivity
QVQLVESGGCLVQAGGSLRLSCAASGSTFLKYTMGWYRQAPGKERELVAAITASGGRTYYADSVKGRFTISRDNAKITVYLQMNSLKPEDTAVYYCAARGFDRYYWGQGTQVTVSS | high polyreactivity
QVQLVESGGGLVQAGGSLRLSCAASGSTFGKYAMGWYRPAPGKERELVAGITYSGGSTYYADSVKGRFTISRDNAKNTVYLQMNSLKPEDTAVYYCAADGSYYTDFVASKYDYWGQGTQVTVSS | low polyreactivity
QVQLGESGGGLVQAGGSLSLSCAASGFSISWYVMGWYRLAPGKERELVAAISWSGDRTYYADSVKGRFTISRDNAKNTVYLQMNSLKPEDTAVFYCAARRWRKYFSGYNYWGQGTQVTVSS | high polyreactivity
QVQLVESGGGLVQAGGSLRLSCAASGRTFGKYAMGWYRQAPGKERELVATISLSGGSTYYADSVKGRFTISRDNAKNTVYLQMNSLKPEDTAVYYCAARRKFDYWGQGTQVTVSS | high polyreactivity
QVQLVESAGGLVQAGGSLRLSCAASGSTLYQYTMGWYRQAPGKERELVAAISRSGGRTYYADSVKGRFTISRDNAKNTVYLQMNSLKPEDTAVYYCAVDPGAYDSWGQGTQVTVSS | high polyreactivity
QVQLVESGGGLVQAGGSLRLSCAASGSIILPNTMGWYRQAPGKERELVASISWNGGRTYYADSVKGRFTISRDNAKNTVYLQMNSLKPEDTAVYYCNADFRYPRVRYDYWGQGTQVTVSS | low polyreactivity
QVQLVESGGGLVQAGGSLRLSCAASGLTSVYNAMGWYRQAPGKERELVAAISWRGGRTYYADSVKGRFTISRDNAKNTVYLQMNSLKPEDTAVYYCARGYYTRPYYNPVFGYNYWGQGTQVTVSS | high polyreactivity
QVQLVESGGGLVQAGGSLRLSCAASGSTFEYYAMGWYRQAPGKERELVAAISTSGGSTYYADSVKGRFTISRDNAKNTVYLQMNSLKPEDTAVYYCNRGRRYSHKYDYWGQGTQVTVSS | high polyreactivity
QVQLVESGGGLVQAGGSLRLSCAASGFTFYKNTMGWYRQAPGKERELVAAISSSGSSTYYADSVKGRFTISRDNAKNTVYLQMNSLKPEDTAVYYCAAVYRSWTSYNGRNYWGQGTQVTVSS | high polyreactivity
